# Measurements reported in patent US20220275046A1 (published 2022).
# T1: MAGE-A2 peptide on HLA-DPA1*01:03 / HLA-DPB1*04:01 (human)
# T1 peptide: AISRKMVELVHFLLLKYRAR
# Target: T1, MAGE-A2 peptide on HLA-DPA1*01:03 / …
# Test: multimer staining
binder,measurement,value
"06-MAGE-A2108-127 TCR (TCR, V domains shown) Valpha: QKVTQAQTEISVVEKEDVTLDCVYETRDTTYYLFWYKQPPSGELVFLIRRNSFDEQNEISGRYSWNFQKSTSSFNFTITASQVVDSAVYFCALSVGTYKYIFGTGTRLKVLA Vbeta: DTGVSQNPRHKITKRGQNVTFRCDPISEHNRLYWYRQTLGQGPEFLTYFQNEAQLEKSRLLSDRFSAERPKGSFSTLEIQRTEQGDSAMYLCASSPGTGGRETQYFGPGTRLLVL",binding result,recognises
